Assay results published in the supplement of paper PMC9112550, “Optimization of the antimicrobial peptide Bac7 by deep mutational scanning” (BMC Biology, 2022).

The sequences below were run on Escherichia coli TOP10 (assay: shrunken log2 fold change of peptide-encoding DNA abundance (4.5 h post-induction vs induction); higher = less antimicrobial activity (less host growth inhibition)). Conditions: time post-induction: 4.5 h; library: site-saturation at positions 5, 18, 19, 20.
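Further: peptides expressed intracellularly from a pBAD plasmid library in pooled LB shake-flask culture, induced with 0.3% L-arabinose, DNA abundance read by NGS, three biological replicates, DESeq2 with apeglm shrinkage.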

Sequence	shrunken log2 fold change
RRIRPRPPRLPRPRPRPAEKPRP	0.0387
RRIRYRPPRLPRPRPRPTFGPRP	-0.0386
RRIRRRPPRLPRPRPRPDMYPRP	-0.315
RRIRTRPPRLPRPRPRPRRAPRP	0.523
RRIRIRPPRLPRPRPRPTLVPRP	0.0386
RRIRIRPPRLPRPRPRPRLQPRP	0.123
RRIRMRPPRLPRPRPRPYRIPRP	-0.0176
RRIRIRPPRLPRPRPRPLQHPRP	-0.121
RRIRARPPRLPRPRPRPRTTPRP	0.755
RRIRHRPPRLPRPRPRPQIWPRP	-0.327
RRIRSRPPRLPRPRPRPFRMPRP	-0.646
RRIRQRPPRLPRPRPRPEKNPRP	0.172
RRIRTRPPRLPRPRPRPVFHPRP	-0.136
RRIRCRPPRLPRPRPRPKTEPRP	-0.0486
RRIRGRPPRLPRPRPRPCGFPRP	1.25
RRIRVRPPRLPRPRPRPSIEPRP	-0.255
RRIRSRPPRLPRPRPRPCSVPRP	0.044
RRIRWRPPRLPRPRPRPIIWPRP	-0.269
RRIRGRPPRLPRPRPRPDQIPRP	0.167
RRIRWRPPRLPRPRPRPSNEPRP	0.0555
RRIRVRPPRLPRPRPRPHTCPRP	-0.345
RRIRIRPPRLPRPRPRPHDIPRP	-0.146
RRIRVRPPRLPRPRPRPYSIPRP	0.0569
RRIRERPPRLPRPRPRPKRAPRP	-0.145
RRIRERPPRLPRPRPRPPFAPRP	0.403

Sequence	shrunken log2 fold change
RRIRARPPRLPRPRPRPGSTPRP	0.247
RRIRQRPPRLPRPRPRPQHLPRP	-0.0402
RRIRIRPPRLPRPRPRPIWRPRP	0.529
RRIRARPPRLPRPRPRPVTEPRP	0.154
RRIRMRPPRLPRPRPRPIAQPRP	0.726
RRIRARPPRLPRPRPRPEETPRP	-0.03
RRIRYRPPRLPRPRPRPMYQPRP	-0.124
RRIRPRPPRLPRPRPRPDWDPRP	0.00947
RRIRHRPPRLPRPRPRPDCYPRP	-0.0716
RRIRLRPPRLPRPRPRPPQNPRP	1.26
RRIRKRPPRLPRPRPRPYPNPRP	0.0382
RRIRDRPPRLPRPRPRPQWCPRP	0.0917
RRIRWRPPRLPRPRPRPVGIPRP	-0.198
RRIRPRPPRLPRPRPRPTPEPRP	0.277
RRIRDRPPRLPRPRPRPDCPPRP	-0.0117
RRIRYRPPRLPRPRPRPFEGPRP	-0.000989
RRIRVRPPRLPRPRPRPRHSPRP	0.292
RRIRARPPRLPRPRPRPMEAPRP	-0.047
RRIRLRPPRLPRPRPRPETRPRP	0.0057
RRIRWRPPRLPRPRPRPIAEPRP	0.00894
RRIRERPPRLPRPRPRPMNRPRP	-0.401
RRIRWRPPRLPRPRPRPFCWPRP	0.403
RRIRQRPPRLPRPRPRPATLPRP	-0.0197
RRIRARPPRLPRPRPRPAMAPRP	0.479
RRIRIRPPRLPRPRPRPDHNPRP	-0.919

Sequence	shrunken log2 fold change
RRIRGRPPRLPRPRPRPKGPPRP	0.331
RRIRGRPPRLPRPRPRPLVKPRP	0.546
RRIRHRPPRLPRPRPRPLNLPRP	0.00301
RRIRIRPPRLPRPRPRPRAHPRP	-0.201
RRIRDRPPRLPRPRPRPQRLPRP	0.116
RRIRRRPPRLPRPRPRPPKHPRP	0.39
RRIRQRPPRLPRPRPRPGNKPRP	-0.596
RRIRIRPPRLPRPRPRPKQAPRP	0.0872
RRIRNRPPRLPRPRPRPRSMPRP	-0.365
RRIRSRPPRLPRPRPRPEYFPRP	-1.04
RRIRWRPPRLPRPRPRPKANPRP	0.51
RRIRKRPPRLPRPRPRPTMDPRP	0.0288
RRIRGRPPRLPRPRPRPEFYPRP	0.0687
RRIRKRPPRLPRPRPRPFFLPRP	0.225
RRIRGRPPRLPRPRPRPYCCPRP	-0.0424
RRIRMRPPRLPRPRPRPWCSPRP	-0.075
RRIRERPPRLPRPRPRPLEYPRP	-0.494
RRIRMRPPRLPRPRPRPSQVPRP	-0.0436
RRIRIRPPRLPRPRPRPYYKPRP	-1.01
RRIRQRPPRLPRPRPRPAPIPRP	0.34
RRIRTRPPRLPRPRPRPLDFPRP	-0.19
RRIRMRPPRLPRPRPRPKLAPRP	2.87
RRIRHRPPRLPRPRPRPSATPRP	-0.00655
RRIRVRPPRLPRPRPRPIKKPRP	-0.015
RRIRARPPRLPRPRPRPDKSPRP	-0.169
